Results as given in patent publication US20220176020A1, “Improved Bone Implant Matrix Comprising Proline-Rich Peptide And Method Of Preparing The Same” (Industrie Biomediche Insubri S.A., priority 2019, published 2022).
No end group written: not given here. *: point of attachment. FITC = O=C1OC2(c3ccc(O)cc3Oc3cc(O)ccc32)c2ccc(NC(=S)*)cc21

What was measured:
[1] = Release profile of FITC-labelled PRP from SBP in 10 ml purified water; assay type: physicochemical; settings: for period of highest release rate / release of peptide: 10 ml purified water; for release of peptide: FITC on C- or N-terminal
Protocol: For 4 days the solution was analysed every 24 h using UV-vis, then 48 h after, and finally […] after. The water was changed every time to better simulate in vivo conditions, maximizing the drive force. Having a FITC+H2O calibration curve, the absorbance could be related to the concentration. Using a known quantity of water, the mass released could be derived from the measured concentration.
For a proper FITC release profile, also samples of bone implant matrix, identified as “SB”, reproduced according to example 3 were studied, since other components of the “SB” is likely to be released, the blank used for the spectroscopy was based on a water+“SB” solution. […] To identify the presence of “PRP” in the aqueous solution, FITC molecules were either attached to the C- or N-terminal of the peptide before loading.
Calibration was used to derive the concentration of FITC released in the water solution at the given time points. With a known quantity of water used at a given time, the mass released can be derived.
Best fit plots where made using the inbuild best-fit function of Graph (Software) assuming both a logarithmic and power function. In general, the logarithmic functions were more accurate (R^2-values closer to 1).

[2] = tested on: MC3T3-E1 cells; assay: Real-time PCR of osteogenic marker mRNA levels (COL1A1, ALP, OC, VEGFA); assay type: cell-based, murine; settings: FIG. 10; for COL1A1 mRNA levels: after 14 days; for OC level: time at which highest/max is reached: measured at 1, 3, 7 and 14 days
Protocol: The cells assessed was murine pre-osteoblastic cell line (MC3T3-E1) obtained from the German Collection of Micro-organisms and Cell Cultures (DSMC, Braunschweig, Germany). MC3T3-E1 cells were routinely cultured at 37° C. in a humidified atmosphere of 5% CO2, and maintained in α-MEM supplemented with 10% foetal calf serum (FCS) and antibiotics (50 IU penicillin/ml and 50 μg streptomycin/ml). Cells were subcultured 1:4 before reaching confluence using PBS and trypsin/EDTA. All experiments were performed in the same passage of the MC3T3-E1 cells.
Then, cells were maintained static at 37° C. in a humidified atmosphere of 5% CO2 for up to 14 days. The same number of cells were cultured in parallel in plastic in all the experiments.
Total RNA was isolated with Tripure (Roche Diagnostics) and RNA was quantified using a spectrophotometer set at 260 nm. Real-time PCR was performed for two reference genes and several target gene (Table) The same amount of total RNA from each sample (370 ng) was reverse transcribed to cDNA at 37° C. for 60 min in a final volume of 20 μl, using High Capacity RNA to cDNA kit (Applied Biosystems). Each cDNA was diluted 1/7 and these dilutions are used to carry on the quantitative PCR.
Real-time PCR was performed in the Lightcycler 480® (Roche Diagnostics, Germany) using SYBR green detection. For each reaction, 7 μl of Lightcycler-FastStart DNA MasterPLUS SYBR Green I, 0.5 μM of sense and antisense specific primer and 3 μl of the cDNA dilution in a final volume of 10 μl was added. The normal amplification program consisted of a preincubation step for denaturation of the template cDNA (95° C.), followed by 45 cycles consisting of a denaturation step (95° C.), an annealing step (60° C., for all expect for ALP and osterix, which were 65° C. and 68° C. respectively) and an extension step (72° C.). Real-time efficiencies were calculated from the given slopes in the LightCycler 480 software using serial dilutions.
Relative quantification after PCRWas calculated by dividing the concentration of the target gene in each sample by the mean of the concentration of the two reference genes (Housekeeping genes) in the same sample using the advanced relative quantification method provided by the LightCycler 480 analysis software version 1.5 (Roche Diagnostics, Mannheim, Germany).

Row | Substance | release rate ([1]; after 14 days, FIG. 2) | COL1A1 mRNA levels [2] | OC level: time at which highest/max is reached [2] | period of highest release rate [1] | initial release ([1]; FIG. 2, comparison P2 vs P5) | release of peptide ([1]; after 14 days) [µg]
1 | P2N: PRP version P2 (SEQ ID 4) with FITC attached on the N terminal ({FITC}-PLVPSQPLVPSQPLVPSQPQPPLPP) | jump in release rate |  |  |  |  | 
2 | PHQ PMQ PQP PVH PMQ PLP PQP PLPP (PHQPMQPQPPVHPMQPLPPQPPLPP; proline rich peptide) [P6, artificial Proline-Rich Peptide] |  | raised significantly | 7 days |  |  | 
3 | PLV PSQ PLV PSQ PLV PSQ PQP PLPP (PLVPSQPLVPSQPLVPSQPQPPLPP; proline rich peptide) [P2, artificial Proline-Rich Peptide] |  |  |  | highest release rate the two first days | higher initial release than P5 | 11.75 to 14.01
4 | PLV PSS PLV PCC PLV PCC PSP PLPP (PLVPSSPLVPCCPLVPCCPSPPLPP; proline rich peptide) [P5, artificial Proline-Rich Peptide] |  | drop | fairly stable | highest release rate the two first days |  | 8.75 to 9.90
